Experiment [1] concerns the target RC4C: Rba. sphaeroides reaction centre with SpyCatcherΔ attached to the N-terminus of PufL via a four residue linker (Rhodobacter sphaeroides) (UniProt P0C0Y9).
For experiment [2], the target named is RCC: Rba. sphaeroides reaction centre with SpyCatcherΔ attached directly to the N-terminus of PufL (Rhodobacter sphaeroides) (UniProt P0C0Y9).
Experiment [3] addresses wild-type (WT) reaction centre (RC) of Rhodobacter sphaeroides (Rhodobacter sphaeroides) (UniProt P0C0Y8).
Experiment [4] addresses RCC: Rba. sphaeroides reaction centre with SpyCatcherΔ attached directly to the N-terminus of PufL (Rhodobacter sphaeroides) (UniProt P0C0Y9). The source holds these as a separate data set.

As to “Td-dLHCII: SpyTagΔ added to the N-terminus of the truncated A. thaliana Lhcb1”, in experiment [1], the E (P870): apparent energy transfer efficiency from the rate of RC P870 photobleaching (650 nm excitation), RC#LHCII chimera in solution worked out at 21% and the EFL: apparent energy transfer efficiency from quenching of LHC emission, RC#LHCII chimera in solution came out at 20.3%.

Turning to “LHCII-T: full SpyTag sequence added to the C-terminus of the full A. thaliana Lhcb1”, in experiment [2], the E (P870): apparent energy transfer efficiency from the rate of RC P870 photobleaching (650 nm excitation), LHCII#RC chimera in solution was 22.8% and the EFL: apparent energy transfer efficiency from quenching of LHC emission, LHCII#RC chimera in solution was found to be 19.6%. In experiment [3], the E (P870): apparent energy transfer efficiency from the rate of RC P870 photobleaching (650 nm excitation), mixture in solution worked out at 1.2% and the EFL: apparent energy transfer efficiency from quenching of LHC emission, mixture in solution came to 0.8%.

For “Td-LHCI-Td: A. thaliana LHCI heterodimer of SpyTagΔ-adapted Lhca1 (Td-L1) and SpyTagΔ-adapted Lhca4 (Td-L4) (complex)”, in experiment [2], the E (P870): apparent energy transfer efficiency from the rate of RC P870 photobleaching (650 nm excitation), RC#LHCI#RC chimera in solution came out at 29.1% and the EFL: apparent energy transfer efficiency from quenching of LHC emission, RC#LHCI#RC chimera in solution amounted to 27.4%. In addition, in experiment [3], the E (P870): apparent energy transfer efficiency from the rate of RC P870 photobleaching (650 nm excitation), mixture in solution (molar ratio of RC to LHC two) was 3.3% and the EFL: apparent energy transfer efficiency from quenching of LHC emission, mixture in solution is 9.3%. In addition, in experiment [4], the Ea1: efficiency of energy transfer to the Lhca1-connected RC in the RC#LHCI#RC chimera, from E (P870) (Eq. 5) was found to be 13.9% and the Ea1: efficiency of energy transfer to the Lhca1-connected RC in the RC#LHCI#RC chimera, from EFL (Eq. 5) stood at 10.4%.

With “LHCI-Td: A. thaliana LHCI heterodimer of unadapted Lhca1 (L1) and SpyTagΔ-adapted Lhca4 (Td-L4) (from UniProt Q01667 36-241) (complex)”, in experiment [2], the E (P870): apparent energy transfer efficiency from the rate of RC P870 photobleaching (650 nm excitation), LHCI#RC chimera in solution is 20.2% and the EFL: apparent energy transfer efficiency from quenching of LHC emission, LHCI#RC chimera in solution came out at 20.7%. In experiment [3], the E (P870): apparent energy transfer efficiency from the rate of RC P870 photobleaching (650 nm excitation), mixture in solution was 1.3% and the EFL: apparent energy transfer efficiency from quenching of LHC emission, mixture in solution is 10.3%. Also, the Ea4: apparent energy transfer efficiency for the LHCI#RC chimera, from E (P870) in experiment [4] came out at 20.1%.

The values are drawn from PMC7093453.
